Tests used:
[1] = molecular target: T1, Tt-S15 (ribosomal protein S15) (Thermus thermophilus, UniProt Q5SJ76 1-89); test: filter binding; Fmax 25%; SELEX Binding Buffer A: 50 mM Tris/acetate pH 7.5, 20 mM Mg-acetate, 270 mM KCl, 5 mM DTT, 0.02% BSA, 25 C, 30 min; filter binding (nitrocellulose/nylon) as previously described; conditions: protein: recombinant; tags: expressed from pET-HT; label: 5'-32P
[2] = molecular target: T2, Gk-S15 (ribosomal protein S15) (Geobacillus kaustophilus, UniProt Q5L0I3 1-89); test: filter binding; Fmax 79%; SELEX Binding Buffer A: 50 mM Tris/acetate pH 7.5, 20 mM Mg-acetate, 270 mM KCl, 5 mM DTT, 0.02% BSA, 25 C, 30 min; filter binding (nitrocellulose/nylon) as previously described; conditions: protein: recombinant; tags: expressed from pET-HT; label: 5'-32P
[3] = molecular target: T2, Gk-S15 (ribosomal protein S15); test: filter binding; Fmax 0.56; text says abolished; SELEX Binding Buffer A: 50 mM Tris/acetate pH 7.5, 20 mM Mg-acetate, 270 mM KCl, 5 mM DTT, 0.02% BSA, 25 C, 30 min; filter binding (nitrocellulose/nylon) as previously described; conditions: protein: recombinant; tags: expressed from pET-HT; label: 5'-32P; H1 disrupted
[4] = molecular target: T2, Gk-S15 (ribosomal protein S15); test: filter binding; Fmax 0.85; SELEX Binding Buffer A: 50 mM Tris/acetate pH 7.5, 20 mM Mg-acetate, 270 mM KCl, 5 mM DTT, 0.02% BSA, 25 C, 30 min; filter binding (nitrocellulose/nylon) as previously described; conditions: protein: recombinant; tags: expressed from pET-HT; label: 5'-32P; H1 restored
[5] = molecular target: T2, Gk-S15 (ribosomal protein S15); test: filter binding; Fmax 0.36; SELEX Binding Buffer A: 50 mM Tris/acetate pH 7.5, 20 mM Mg-acetate, 270 mM KCl, 5 mM DTT, 0.02% BSA, 25 C, 30 min; filter binding (nitrocellulose/nylon) as previously described; conditions: protein: recombinant; tags: expressed from pET-HT; label: 5'-32P
[6] = molecular target: T2, Gk-S15 (ribosomal protein S15); test: filter binding; Fmax 0.71; SELEX Binding Buffer A: 50 mM Tris/acetate pH 7.5, 20 mM Mg-acetate, 270 mM KCl, 5 mM DTT, 0.02% BSA, 25 C, 30 min; filter binding (nitrocellulose/nylon) as previously described; conditions: protein: recombinant; tags: expressed from pET-HT; label: 5'-32P; H2 disrupted
[7] = molecular target: T2, Gk-S15 (ribosomal protein S15); test: filter binding; Fmax 70%; SELEX Binding Buffer A: 50 mM Tris/acetate pH 7.5, 20 mM Mg-acetate, 270 mM KCl, 5 mM DTT, 0.02% BSA, 25 C, 30 min; filter binding (nitrocellulose/nylon) as previously described; conditions: protein: recombinant; tags: expressed from pET-HT; label: 5'-32P; helices H1-H3
[8] = molecular target: T1, Tt-S15 (ribosomal protein S15); test: filter binding; Fmax 78%; SELEX Binding Buffer A: 50 mM Tris/acetate pH 7.5, 20 mM Mg-acetate, 270 mM KCl, 5 mM DTT, 0.02% BSA, 25 C, 30 min; filter binding (nitrocellulose/nylon) as previously described; conditions: protein: recombinant; tags: expressed from pET-HT; label: 5'-32P; helices H1-H3
[9] = molecular target: T2, Gk-S15 (ribosomal protein S15); test: filter binding; Fmax 40%; SELEX Binding Buffer A: 50 mM Tris/acetate pH 7.5, 20 mM Mg-acetate, 270 mM KCl, 5 mM DTT, 0.02% BSA, 25 C, 30 min; filter binding (nitrocellulose/nylon) as previously described; conditions: protein: recombinant; tags: expressed from pET-HT; label: 5'-32P
[10] = molecular target: T2, Gk-S15 (ribosomal protein S15); test: filter binding; Fmax 21%; SELEX Binding Buffer A: 50 mM Tris/acetate pH 7.5, 20 mM Mg-acetate, 270 mM KCl, 5 mM DTT, 0.02% BSA, 25 C, 30 min; filter binding (nitrocellulose/nylon) as previously described; conditions: protein: recombinant; tags: expressed from pET-HT; label: 5'-32P
[11] = molecular target: T2, Gk-S15 (ribosomal protein S15); test: filter binding; Fmax 44%; poor 1:1 fit; SELEX Binding Buffer A: 50 mM Tris/acetate pH 7.5, 20 mM Mg-acetate, 270 mM KCl, 5 mM DTT, 0.02% BSA, 25 C, 30 min; filter binding (nitrocellulose/nylon) as previously described; conditions: protein: recombinant; tags: expressed from pET-HT; label: 5'-32P
[12] = molecular target: T2, Gk-S15 (ribosomal protein S15); test: filter binding; Fmax 55%; SELEX Binding Buffer A: 50 mM Tris/acetate pH 7.5, 20 mM Mg-acetate, 270 mM KCl, 5 mM DTT, 0.02% BSA, 25 C, 30 min; filter binding (nitrocellulose/nylon) as previously described; conditions: protein: recombinant; tags: expressed from pET-HT; label: 5'-32P

T1 sequence (Q5SJ76 whole entry): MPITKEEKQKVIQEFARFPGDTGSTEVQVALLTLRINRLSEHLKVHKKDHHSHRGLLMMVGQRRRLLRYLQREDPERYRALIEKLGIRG

B1: 11-2 (structured_RNA)
RNA: UGCGUAACGUACACUCCCUACUCGUGGAUUGGACUCUAUAAUAGAUCAUUCUAUAUACUGUGGAGCUUAAAAUGUCUCUAAGUACUGAAGCAACAGCU
- Kd [1]: 39 ± 6.27 nM
- Kd [2]: 9.7 ± 1.6 nM

B2: 11-1-M2 (structured_RNA)
RNA: UUGGUAACGUACACUUCCUUCGCUUAUUCGGAGUAGAUCACGUGAUCAUUCUGUAUGCUUUGGAGUUUUAAAAUGUCUCUAAGUACUGAAGCAACAGCU
- Kd [3]: 56.5 ± 5.74 nM

B3: 11-1-M3 (structured_RNA)
RNA: UUGGUAACCGACACUUCCUUCGCUUAUUCGGAGUAGAUCACGUGAUCAUUCUGUAUGCUUUGGAGUUUUAAAAUGUCUCUAAGUACUGAAGCAACAGCU
- Kd [4]: 20.9 ± 6.3 nM

B4: 11-1-M4 (structured_RNA)
RNA: UGCGUAACGUACACUUCCUUCGCUUAUUCGGAGUAGAUCACGUGAUCAUUCUGUAUGCUUUGGAG
- Kd [5]: 7.7 ± 5.89 nM

B5: 11-1-M8 (structured_RNA)
RNA: UGCGUAACGUACACUUCCUUCGCUUAUUCGGAGUAGAUCACGUGAUCAUUCUGUAUGCUUUGGUCUUUUAAAAUGUCUCUAAGUACUGAAGCAACAGCU
- Kd [6]: 84.5 ± 14.5 nM

B6: 11-1 (structured_RNA)
RNA: UGCGUAACGUACACUUCCUUCGCUUAUUCGGAGUAGAUCACGUGAUCAUUCUGUAUGCUUUGGAGUUUUAAAAUGUCUCUAAGUACUGAAGCAACAGCU
- Kd [7]: 0.9 ± 0.02 nM
- Kd [8]: 94.9 ± 22.5 nM

B7: 11-3 (structured_RNA)
RNA: UGCGUAACGUACACUCCGAUGUUACCCGCGCGAGGUCAUUGGUACUCAAUCUAUAUACUUUGGAGUUUUAAAUGUCUCUAAGUACUGAAGCAACAGCU
- Kd [9]: 20.7 ± 15.2 nM

B8: 11-4 (structured_RNA)
RNA: UGCGUAACGUACACUGAACAAUCCCAGCGCUCUAUGGAAUCUGCAUCAUCUAUUCUUUGGAGUUUAAAUGUCUCUAAGUACUGAAGCAACAGCU
- Kd [10]: 8.5 ± 2 nM

B9: 11-5 (structured_RNA)
RNA: UGCGUAACGUACACUAAAGACGGAAGGCCAAAACCUAUGCUUACCCUUUACUUUGGAGUUUUAAAAUGUCUCUAAGUACUGAAGCAACAGCU
- Kd [11]: 10 ± 1.4 nM

B10: 11-6 (structured_RNA)
RNA: UGCGUAACGUACACUGAAGACCGCGAACUACAAACGUAACUCGGUUCAUUCUAUAUACUUUAGAGUUUUAAAAUGUCUCUAAGUACUGAAGCAACAGCU
- Kd [12]: 289 ± 121 nM

Source: PMC5100602, “RNA regulators responding to ribosomal protein S15 are frequent in sequence space”
